The results in this text go back to paper PMC11300487, “C-phycocyanin reinforces autophagy to block pulmonary fibrogenesis by inhibiting lncIAPF biogenesis” (Archives of Pharmacal Research, 2024).

The assay concerns the target T1, C-phycocyanin (Spirulina platensis, UniProt P72509 1-162; P72508 1-172).
T1 construct: C-phycocyanin alpha subunit, Spirulina platensis; C-phycocyanin beta subunit, Spirulina platensis; the source organism is told in the introduction only; also called C-PC; source: bought: Aladdin, Shanghai
Description: SPR; equilibrium dissociation constant; who was immobilised and the conditions not given. The conditions noted are these: both partners purified. (Surface plasmon resonance follows binding to a sensor surface in real time, without labels.)

B1: activating transcription factor 3 (natural protein, UniProt P18847 1-181, looked up)
chain: MMLQHPGQVSASEVSASAIVPCLSPPGSLVFEDFANLTPFVKEELRFAIQNKHLCHRMSSALESVTVSDRPLGVSITKAEVAPEEDERKKRRRERNKIAAAKCRNKKKEKTECLQKESEKLESVNAELKAQIEELKNEKQHLIYMLNLHRPTCIVRAQNGRTPEDERNLFIQQIKEGTLQS
notes: ATF3 as used in the SPR experiment; the ATF3 protein used there is not described; also called ATF3
Molecule B1 showed a Kd of 683 nM.

As usually defined, the Kd is the equilibrium constant for the complex coming apart. Read a high Kd as weaker binding.
